# Measured values: patent US20040043959A1, “Combination therapies for treating methylthioadenosine phosphorylase deficient cells” (priority 2002, published 2004)
# Tests used:
# Assay in all cases: MTAP substrate assay, coupled spectrophotometric (adenine, xanthine oxidase)
# Type in all cases: biochemical, human
# Conditions in all cases: other: substrate of MTAP, 37° C.
# [1] = substrate: Nc1ncnc2c1ncn2[C@@H]1O[C@H](CSCCCc2ccccc2)[C@@H](O)[C@H]1O
# Description: (§1) An enzymatic assay to determine the activity of MTAP against a given substrate was performed. Human MTAP containing an N-terminal six-histidine tag was expressed in E. coli BL21 DE3 cells. The protein was purified to homogeneity by Ni2+ affinity chromatography. Enzymatic activity was measured using a coupled spectrophotometric assay designed to monitor the reaction product adenine (Savarese, T. M., Crabtree, G. W., and Parks, R. E. Jr., (1980) Biochem. Pharmacol. 30, 189-199). Various concentrations of the indicated 5′-deoxymethylthio adenosine (MTA) or substrate were incubated in assay buffer (40 mM potassium phosphate buffer, 1 mM, and DTT 0.8 units/ml xanthine oxidase coupling enzyme) for 5 minutes at 37° C. The reaction was initiated by the addition of MTAP. The exact concentration of enzyme used varied for each substrate tested and ranged from 2 nM to 500 nM. Activity as a function of enzyme concentration was determined for each substrate tested to ensure that the appropriate enzyme concentration was used. Activity was detected by continuous monitoring of absorbance at 305 nm for 10 minutes (ΔE=15,500 M^−1).
# (§2) Library compounds (10 and 50 uM) were tested using the assay described above with 2 nM MTAP enzyme. The resultant initial velocities are reported as a percentage of the initial velocity observed when MTA is the substrate. MTA controls, 10 and 50 uM concentrations, were run on each plate alongside the library compounds.
# [2] = substrate: Nc1ncnc2c1ncn2[C@@H]1O[C@H](CSCc2ccc(Cl)cc2)[C@@H](O)[C@H]1O
# Description: as §1, §2
# [3] = substrate: COc1ccc(SC[C@H]2O[C@@H](n3cnc4c(N)ncnc43)[C@H](O)[C@@H]2O)cc1
# Description: as §1, §2
# [4] = substrate: Nc1ncnc2c1ncn2[C@@H]1O[C@H](CSC2CCCC2)[C@@H](O)[C@H]1O
# Description: as §1, §2
# [5] = substrate: Nc1ncnc2c1ncn2[C@@H]1O[C@H](CSc2ccccc2)[C@@H](O)[C@H]1O
# Description: as §1, §2
# [6] = substrate: Nc1ncnc2c1ncn2[C@@H]1O[C@H](CSc2ncccn2)[C@@H](O)[C@H]1O
# Description: as §1, §2
# [7] = substrate: Cc1ccccc1CSC[C@H]1O[C@@H](n2cnc3c(N)ncnc32)[C@H](O)[C@@H]1O
# Description: as §1, §2
# [8] = substrate: COC[C@H]1O[C@@H](n2cnc3c(N)ncnc32)[C@H](O)[C@@H]1O
# Description: as §1, §2
# [9] = substrate: Nc1ncnc2c1ncn2[C@@H]1O[C@H](COc2ccccn2)[C@@H](O)[C@H]1O
# Description: as §1, §2
# [10] = substrate: CSC[C@H]1O[C@@H](n2cnc3c(N)ncnc32)C[C@@H]1O
# Description: as §1, §2
# [11] = substrate: CSC[C@H]1O[C@@H](n2cnc3c(N)ncnc32)[C@@H](O)[C@@H]1O
# Description: as §1, §2
# [12] = substrate: Nc1ncnc2c1ncn2[C@@H]1O[C@H](CNCCc2ccccn2)[C@@H](O)[C@H]1O
# Description: as §1, §2
# [13] = substrate: Nc1ncnc2c1ncn2[C@@H]1O[C@H](CSCCc2ccccn2)[C@@H](O)[C@H]1O
# Description: as §1, §2
# [14] = substrate: COc1ccc(OC[C@H]2O[C@@H](n3cnc4c(N)ncnc43)[C@H](O)[C@@H]2O)cc1
# Description: as §1, §2
# [15] = substrate: CC(C)(C)SC[C@H]1O[C@@H](n2cnc3c(N)ncnc32)[C@H](O)[C@@H]1O
# Description: as §1, §2
# [16] = substrate: Nc1ncnc2c1ncn2[C@@H]1O[C@H](CCc2ccccc2)[C@@H](O)[C@H]1O
# Description: as §1, §2
protein,measurement,setting,value
"Human MTAP (Homo sapiens) (protein, six-histidine tag (His6) (N); made in house; host or cells: E. coli BL21 DE3) MASGTTTTAVKIGIIGGTGLDDPEILEGRTEKYVDTPFGKPSDALILGKIKNVDCVLLARHGRQHTIMPSKVNYQANIWALKEEGCTHVIVTTACGSLREEIQPGDIVIIDQFIDRTTMRPQSFYDGSHSCARGVCHIPMAEPFCPKTREVLIETAKKLGLRCHSKGTMVTIEGPRFSSRAESFMFRTWGADVINMTTVPEVVLAKEAGICYASIAMATDYDCWKEHEEAVSVDRVLKTLKENANKAKSLLLTTIPQIGSTEWSETLHNLKNMAQFSVLLPRH",Km,[1],2.8 µM
same,kcat,[1],2.16 s⁻¹
same,Km,[2],3.9 µM
same,kcat,[2],3.3 s⁻¹
same,Km,[3],7 µM
same,kcat,[3],0.8 s⁻¹
same,Km,[4],3.2 µM
same,kcat,[4],1.5 s⁻¹
same,Km,[5],3 µM
same,kcat,[5],1.5 s⁻¹
same,Km,[6],7 µM
same,kcat,[6],4.1 s⁻¹
same,Km,[7],10 µM
same,kcat,[7],0.79 s⁻¹
same,Km,[8],250 µM
same,kcat,[8],0.006 s⁻¹
same,Km,[9],29 µM
same,kcat,[9],3.82 s⁻¹
same,Km,[10],3.3 µM
same,kcat,[10],0.76 s⁻¹
same,Km,[11],106 µM
same,kcat,[11],0.006 s⁻¹
same,Km,[12],1300 µM
same,kcat,[12],0.018 s⁻¹
same,Km,[13],10.2 µM
same,kcat,[13],1.01 s⁻¹
same,Km,[14],10 µM
same,kcat,[14],0.54 s⁻¹
same,Km,[15],17 µM
same,kcat,[15],0.85 s⁻¹
same,Km,[16],1.3 µM
same,kcat,[16],4.6 s⁻¹
